Patent WO2021229104A1 (dated 2021)

Legend:
[1] = target: T1, recombinant biotinylated CD38 protein (Homo sapiens (Human), UniProt P28907 43-300, biotinylated (site not stated)); experiment: BLI (Octet), biotinylated recombinant CD38 on streptavidin sensors, seven nanobody concentrations, 1:1 model
T1 construct: also called biotinylated CD38 antigen; biotin-labelled recombinant CD38 protein

[2] = target: T2, human CD38 receptor expressed on RPMI-8226 multiple myeloma cells and other CD38+ cell lines (human, UniProt P28907 1-300); experiment: saturation binding of radiolabelled nanobody on CD38+ RPMI-8226 cells, 1 hour at 4 C
T2 construct: Endogenous CD38 on human cell lines; also called cyclic ADP-Ribose Hydrolase 1; ADPRC1

Row | Kd [1] | Kd [2] | Binder
1 | 0.7 nM |  | anti-CD38 nanobody 2F8 (Nb2F8) with C-terminal hexahistidine tag (VHH, also called sdAb 2F8) VHH: QVQLVESGGGSVQAGGSLRLSCAASGYTDSDYIMAWFRQAPGKEREVVATIYIGGTYIHYADSVKGRFTISRDNAENTVYLQMNNLKPEDTAMYYCAATKWRPFISTRAAEYNYWGQGTLVTVSS
2 |  | 16.7 nM | 111In-DTPA-Nb2F8 (untagged Nb2F8 conjugated to CHX-A''-DTPA and labelled with Indium-111) (VHH, CHX-A''-DTPA conjugated to the free epsilon-amino groups of lysines; chelated Indium-111, also called m In-DTPA-Nb2F8; ul In-DTPA-Nb2F8) VHH: QVQLVESGGGSVQAGGSLRLSCAASGYTDSDYIMAWFRQAPGKEREVVATIYIGGTYIHYADSVKGRFTISRDNAENTVYLQMNNLKPEDTAMYYCAATKWRPFISTRAAEYNYWGQGTLVTVSS
